{"source": "patent US20130023033A1", "about": "“PHARMACOLOGICALLY INDUCED TRANSGENE ABLATION SYSTEM” (The Trustees of the University of Pennsylvania, priority 2010, published 2013)", "key": {"[1]": {"test_system": "GFP-Luciferase driven by a promoter induced by the dimerized TF", "assay": "In vivo model for a dimerizer-inducible system (Xenogen imaging of luciferase after rapamycin)", "set-up": "species or system mouse", "details": "rapamycin 2 mg/kg IP", "source_text": "Four groups of three mice received IV injection of AAV vectors encoding bicistronic reporter genes (GFP-Luciferase) at doses of 3×10^10, 1×10^11 and 3×10^11 particles of virus, respectively: Group 1 (G 1, G2, and G3) received AAV vectors expressing GFP Luciferase under the control of ubiquitous constitutive CMV promoter (see FIG. 16A for a diagram of the DNA construct). Group 2 (G4, G5, and G6) received co-injection of the following 2 AAV vectors: (1) AAV vector expressing a dimerizable transcription factor domain unit (FRB fused with p65 activation domain and DNA binding domain ZFHD fused with 3 copies of FKBP) driven by the CMV promoter (the DNA construct shown in FIG. 9B; and (2) AAV vector expressing GFP-Luciferase driven by a promoter induced by the dimerized TF (see FIG. 19C for a diagram of the DNA constructs). Group 3 (G7, G8, and G9) received AAV vector expressing GFP-Luciferase under the control of a liver constitutive promoter, TBG (see FIG. 16C for a diagram of the DNA construct). Group 4 (G10, G11, G12) received co-injection of the following 2 AAV vectors: (1) AAV vector expressing a dimerizable transcription factor domain unit (FRB fused with p65 activation domain and DNA binding domain ZFHD fused with 3 copies of FKBP) driven by the TBG promoter; and (2) AAV vector expressing GFP-Luciferase driven by a promoter induced by the dimerized TF (see FIG. 16D for a diagram of the DNA constructs).\nAbout 2 weeks post virus administration, the mice were given IP injection of the dimerizer, rapamycin, at the dose of 2 mg/kg. Starting the next day the luciferase expression was monitored by Xenogen imaging analysis. Approximately 24 hours post rapamycin injection, the mice were IP injected with luciferin, the substrate for luciferase, then anesthetized for imaging."}, "[2]": {"biological_target": "ZFHD-FKBP fusion with 3 copies of FKBP (3xFKBP) (UniProt P62942)", "sequence (P62942 other isoform, or with tags, fused parts or gaps)": "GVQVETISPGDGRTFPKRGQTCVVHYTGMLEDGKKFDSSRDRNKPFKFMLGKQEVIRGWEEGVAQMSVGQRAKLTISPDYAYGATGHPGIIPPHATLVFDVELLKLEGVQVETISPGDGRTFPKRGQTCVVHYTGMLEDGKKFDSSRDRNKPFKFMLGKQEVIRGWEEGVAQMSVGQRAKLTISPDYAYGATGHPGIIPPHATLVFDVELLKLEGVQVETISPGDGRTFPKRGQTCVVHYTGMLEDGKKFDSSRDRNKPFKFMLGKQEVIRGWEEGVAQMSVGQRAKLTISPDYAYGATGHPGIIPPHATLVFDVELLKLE", "assay": "cell-based or functional assay"}, "[3]": {"test_system": "pCMV.Luciferase reporter gene in HEK293 cells", "assay": "Ablation of luciferase reporter by FokI ablators cotransfected with pCMV.Luciferase", "assay_type": "cell-based, human", "details": "for expression of Luc reporter gene with increasing concentrations of ablator expression plasmid: 50 ng pCMV.Luciferase cotransfected with 6.25, 12.5, 25, 50 and 100 ng expression plasmid", "method": "Open reading frames encoding for various endonucleases were codon optimized and de novo synthesized by GeneArt. Ablator expression and target plasmids were produced using standard molecular biological cloning techniques. Transfections were performed in HEK293 cells using Lipofectamine™ 2000 transfection reagent (Life Technologies). All transfections were performed using optimal transfection conditions as defined in transfection reagent protocol. Briefly, 200-250 ng plasmid DNA (excluding transfection control plasmid) was complexed with lipofectamine and added to cells in 96 well plates. DNA quantities were consistent across all conditions by supplementation with an unrelated plasmid containing the same promoter as test plasmids. Transfection complexes were incubated with cells for 4-6 hours as transfection reagent protocol before the addition of FBS supplemented media. Transfected cells were incubated at 37° C. for 24-72 hours. Following incubation, cells were assayed for reporter gene expression using Promega Dual Luciferase detection kit according to the manufacturer's instructions on a BioTek Clarity platereader and renilla luciferase was used to control for transfection efficiency. All samples were performed in quadruplicate and standard errors of the mean were calculated."}}, "note": "“Also recorded” adds a separate entry of the source."}
{"molecule": "CO[C@H]1C[C@@H]2CC[C@@H](C)[C@@](O)(O2)C(=O)C(=O)N2CCCC[C@H]2C(=O)O[C@H]([C@H](C)C[C@@H]2CC[C@@H](O)[C@H](OC)C2)CC(=O)[C@H](C)/C=C(\\C)[C@@H](O)[C@@H](OC)C(=O)[C@H](C)C[C@H](C)/C=C/C=C/C=C/1C", "note": "[rapamycin]", "values": [{"measurement": "level of luciferase expression compared to level of pre-induction", "setting": "[1]; Group 2 mice (TF unit driven by CMV promoter + inducible GFP-Luciferase vector), 3×10^11 particles, about 24 h post rapamycin", "result": "more than 2 logs"}, {"measurement": "luciferase expression induced compared to pre-inducement", "setting": "[1]; Group 4 mice (TF unit driven by TBG promoter + inducible GFP-Luciferase vector), 3×10^11 particles, about 24 h post rapamycin", "result": "more than 100 fold"}, {"measurement": "peak level of luciferase expression over baseline", "setting": "[1]; dimerizer-inducible system", "result": "more than 2 logs"}]}
{"molecule": "FRB-TA fusion (FRB fragment of FRAP/mTOR, amino acids 2021-2113 with Thr2098Leu, fused to a 190 amino acid portion of human NF-KB p65)", "values": [{"measurement": "luciferase expression in mice (Xenogen imaging) after rapamycin 2 mg/kg IP against pre-induction; Group 2, transcription factor domains driven by the CMV promoter", "setting": "[2]", "result": 2, "unit": "logs"}, {"measurement": "luciferase expression in mice (Xenogen imaging) after rapamycin 2 mg/kg IP against pre-induction; Group 4, transcription factor domains driven by the TBG promoter", "setting": "[2]", "result": "> 100", "unit": "fold"}]}
{"molecule": "ZFHD-FokI: FokI catalytic domain fused to a zinc finger homeodomain DNA binding domain (SEQ ID NO: 21), from expression plasmid", "values": [{"measurement": "expression of Luc reporter gene with increasing concentrations of ablator expression plasmid", "setting": "[3]", "result": "dose dependent ablation; also recorded: effectively ablated expression of luciferase reporter in a dose dependent manner"}]}
{"molecule": "untethered FokI: FokI catalytic domain alone, 198 amino acids (SEQ ID NO: 14), from expression plasmid (protein) MKQLVKSELEEKKSELRHKLKYVPHEYIELIEIARNPTQDRILEMKVMEFFMKVYGYRGEHLGGSRKPDGAIYTVGSPIDYGVIVDTKAYSGGYNLPIGQADEMQRYVEENQTRNKHINPNEWWKVYPSSVTEFKFLFVSGHFKGNYKAQLTRLNHITNCNGAVLSVEELLIGGEMIKAGTLTLEEVRRKFNNGEINF", "values": [{"measurement": "expression of Luc reporter gene with increasing concentrations of ablator expression plasmid", "setting": "[3]", "result": "no effect"}]}
{"molecule": "NLS-HTH-FokI: HTH-FokI with heterologous NLS added at the N-terminus of the coding sequence (protein, SV40 NLS-Gin HTH-linker-FokI, coding sequence only; modified enzyme from SV40, Gin and FokI) MPKKKRKVGRPPRLTKAEWEQAGRLLAQGIPRKQVALIYDVALSTLYKKHPAKRAHIENDDRINGTKQLVKSELEEKKSELRHKLKYVPHEYIELIEIARNPTQDRILEMKVMEFFMKVYGYRGEHLGGSRKPDGAIYTVGSPIDYGVIVDTKAYSGGYNLPIGQADEMQRYVEENQTRNKHINPNEWWKVYPSSVTEFKFLFVSGHFKGNYKAQLTRLNHITNCNGAVLSVEELLIGGEMIKAGTLTLEEVRRKFNNGEINF", "values": [{"measurement": "activity (ablation of luciferase reporter) after adding heterologous NLS at the N-terminus", "setting": "[3]; compared with HTH-FokI without NLS, separate experiment (FIG. 27B)", "result": "further improved"}]}
{"molecule": "wild-type FokI: full-length FokI enzyme (SEQ ID NO: 12) expressed from cotransfected plasmid pCMV.FokI (protein) MFLSMVSKIRTFGWVQNPGKFENLKRVVQVFDRNSKVHNEVKNIKIPTLVKESKIQKELVAIMNQHDLIYTYKELVGTGTSIRSEAPCDAIIQATIADQGNKKGYIDNWSSDGFLRWAHALGFIEYINKSDSFVITDVGLAYSKSADGSAIEKEILIEAISSYPPAIRILTLLEDGQHLTKFDLGKNLGFSGESGFTSLPEGILLDTLANAMPKDKGEIRNNWEGSSDKYARMIGGWLDKLGLVKQGKKEFIIPTLGKPDNKEFISHAFKITGEGLKVLRRAKGSTKFTRVPKRVYWEMLATNLTDKEYVRTRRALILEILIKAGSLKIEQIQDNLKKLGFDEVIETIENDIKGLINTGIFIEIKGRFYQLKDHILQFVIPNRGVGTKQLVKSELEEKKSELRHKLKYVPHEYIELIEIARNPTQDRILEMKVMEFFMKVYGYRGEHLGGSRKPDGAIYTVGSPIDYGVIVDTKAYSGGYNLPIGQADEMQRYVEENQTRNKHINPNEWWKVYPSSVTEFKFLFVSGHFKGNYKAQLTRLNHITNCNGAVLSVEELLIGGEMIKAGTLTLEEVRRKFNNGEINF", "values": [{"measurement": "expression of the luciferase reporter gene", "setting": "[3]; 50 ng pCMV.Luciferase, 200 ng pCMV.FokI or transfected FokI protein (FIG. 25A)", "result": "effective ablated expression"}]}
{"molecule": "HTH-FokI: HTH from Gin, linker and FokI catalytic domain (SEQ ID NO: 6), from expression plasmid (protein) MGRPPRLTKAEWEQAGRLLAQGIPRKQVALIYDVALSTLYKKHPAKRAHIENDDRINGTKQLVKSELEEKKSELRHKLKYVPHEYIELIEIARNPTQDRILEMKVMEFFMKVYGYRGEHLGGSRKPDGAIYTVGSPIDYGVIVDTKAYSGGYNLPIGQADEMQRYVEENQTRNKHINPNEWWKVYPSSVTEFKFLFVSGHFKGNYKAQLTRLNHITNCNGAVLSVEELLIGGEMIKAGTLTLEEVRRKFNNGEINF", "values": [{"measurement": "expression of Luc reporter gene with increasing concentrations of ablator expression plasmid", "setting": "[3]", "result": "effectively ablated expression of luciferase reporter in a dose dependent manner"}]}
